Assay results: IntAct's records for PubMed 23901104

B1: Vacuolar protein sorting-associated protein 16 homolog (Homo sapiens), Q9H269 (parent)
chain: MDCYTANWNPLGDSAFYRKYELYSMDWDLKEELRDCLVAAAPYGGPIALLRNPWRKEKAASVRPVLDIYSASGMPLASLLWKSGPVVSLGWSAEEELLCVQEDGAVLVYGLHGDFRRHFSMGNEVLQNRVLDARIFHTEFGSGVAILTGAHRFTLSANVGDLKLRRMPEVPGLQSAPSCWTVLCQDRVAHILLAVGPDLYLLDHAACSAVTPPGLAPGVSSFLQMAVSFTYRHLALFTDTGYIWMGTASLKEKLCEFNCNIRAPPKQMVWCSRPRSKERAVVVAWERRLMVVGDAPESIQFVLDEDSYLVPELDGVRIFSRSTHEFLHEVPAASEEIFKIASMAPGALLLEAQKEYEKESQKADEYLREIQELGQLTQAVQQCIEAAGHEHQPDMQKSLLRAASFGKCFLDRFPPDSFVHMCQDLRVLNAVRDYHIGIPLTYSQYKQLTIQVLLDRLVLRRLYPLAIQICEYLRLPEVQGVSRILAHWACYKVQQKDVSDEDVARAINQKLGDTPGVSYSDIAARAYGCGRTELAIKLLEYEPRSGEQVPLLLKMKRSKLALSKAIESGDTDLVFTVLLHLKNELNRGDFFMTLRNQPMALSLYRQFCKHQELETLKDLYNQDDNHQELGSFHIRASYAAEERIEGRVAALQTAADAFYKAKNEFAAKATEDQMRLLRLQRRLEDELGGQFLDLSLHDTVTTLILGGHNKRAEQLARDFRIPDKRLWWLKLTALADLEDWEELEKFSKSKKSPIGYLPFVEICMKQHNKYEAKKYASRVGPEQKVKALLLVGDVAQAADVAIEHRNEAELSLVLSHCTGATDGATADKIQRARAQAQKK
partner: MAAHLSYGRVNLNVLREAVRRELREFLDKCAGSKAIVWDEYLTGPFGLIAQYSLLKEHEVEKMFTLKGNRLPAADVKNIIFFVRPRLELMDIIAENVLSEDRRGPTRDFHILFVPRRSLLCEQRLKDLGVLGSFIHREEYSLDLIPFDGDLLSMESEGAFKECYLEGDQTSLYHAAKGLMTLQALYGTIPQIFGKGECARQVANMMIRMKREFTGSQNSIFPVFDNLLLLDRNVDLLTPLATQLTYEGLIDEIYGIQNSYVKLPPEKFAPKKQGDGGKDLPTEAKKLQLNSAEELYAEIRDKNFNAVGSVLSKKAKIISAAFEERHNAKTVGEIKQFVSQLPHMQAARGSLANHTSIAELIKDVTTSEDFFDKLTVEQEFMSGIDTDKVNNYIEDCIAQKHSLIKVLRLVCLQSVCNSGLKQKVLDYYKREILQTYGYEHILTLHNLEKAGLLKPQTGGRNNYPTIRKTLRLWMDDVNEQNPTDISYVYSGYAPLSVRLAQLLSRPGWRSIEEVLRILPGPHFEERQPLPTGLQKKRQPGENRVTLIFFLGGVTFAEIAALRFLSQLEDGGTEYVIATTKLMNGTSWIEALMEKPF
B2: Vacuolar protein sorting-associated protein 33A (Homo sapiens), Q96AX1 (parent)
chain: B1 partner
partner: B1 chain

Variants of: B1
Conditions: with vp33a_human VPS33A

Variant	effect of a mutation on the interaction
A669D	decreasing interaction
R725E	disrupting interaction

Variants of: B2
Conditions: with vps16_human VPS16, Q9H269

Variant	effect of a mutation on the interaction
I441K	disrupting interaction
Y438D	disrupting interaction
Y438P	disrupting interaction strength
K429D	disrupting interaction
